Results taken from patent US20240317847A1 (Bayer, published 2024).
Values joined by “and” are separate entries in the source; they are usually repeats but may differ in a detail not shown here. Equal entries are not always repeated.

What was measured:
Experiment in all cases: cell-based or functional assay
human IL-11 [1] = target: T1, human IL-11 (human, UniProt P20809 22-199)
T1 sequence: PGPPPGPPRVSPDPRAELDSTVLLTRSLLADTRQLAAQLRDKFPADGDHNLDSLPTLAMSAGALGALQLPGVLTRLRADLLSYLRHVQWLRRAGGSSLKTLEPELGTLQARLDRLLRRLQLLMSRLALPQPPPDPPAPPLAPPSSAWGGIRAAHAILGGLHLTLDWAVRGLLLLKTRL

murine IL-11 [2] = target: T2, murine IL-11 (mouse, UniProt P47873 22-199)
T2 sequence: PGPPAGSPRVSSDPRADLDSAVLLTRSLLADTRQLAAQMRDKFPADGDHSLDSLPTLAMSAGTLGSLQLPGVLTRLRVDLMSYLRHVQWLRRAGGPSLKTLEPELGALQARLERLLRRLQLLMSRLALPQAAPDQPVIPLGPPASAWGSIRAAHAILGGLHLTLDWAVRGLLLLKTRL

human IL-11 [3] = target: T3, human IL-11 (human, UniProt P20809 22-199); remark: listed apart in the source
T3 sequence: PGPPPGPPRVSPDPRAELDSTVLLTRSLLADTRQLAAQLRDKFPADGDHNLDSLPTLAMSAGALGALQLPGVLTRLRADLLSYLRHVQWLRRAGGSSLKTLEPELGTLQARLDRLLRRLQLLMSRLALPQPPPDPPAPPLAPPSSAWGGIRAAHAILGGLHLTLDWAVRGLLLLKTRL

murine IL-11 [4] = target: T4, murine IL-11 (mouse, UniProt P47873 22-199); remark: listed apart in the source
T4 sequence: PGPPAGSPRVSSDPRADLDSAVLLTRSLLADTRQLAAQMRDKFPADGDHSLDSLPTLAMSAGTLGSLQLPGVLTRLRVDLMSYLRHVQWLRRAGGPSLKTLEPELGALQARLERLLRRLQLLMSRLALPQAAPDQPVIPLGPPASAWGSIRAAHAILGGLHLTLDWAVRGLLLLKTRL

Binder	IC50, RGA 1 (human IL-11 [1])	IC50, RGA 2 (human IL-11 [1]) [nM]	IC50, RGA 1 (murine IL-11 [2])	IC50, RGA 2 (murine IL-11 [2]) [nM]	RGA Efficacy (%) (human IL-11 [3])	RGA IC50 (human IL-11 [3]) [nM]	RGA Efficacy (%) (murine IL-11 [4])	RGA IC50 (murine IL-11 [4]) [nM]
TPP-31295 (antibody, IgG4, V domains shown) VH: EVQLLESGGGLVQPGGSLRLSCAASGFTFSHYDMNWLRQAPGKGLEWVGVISYDGSNKYYADFVKGRFTISRDNSKNTLYLQMNSLRAEDTAVYYCARTPGSHFDYWGQGTLVTVSS VL: QSVLTQPPSASGTPGQRVTISCSGSSSNIGNNAVNWYQQLPGTAPKLLIYYDDLLPSGVPDRFSGSKSGTSASLAISGLRSEDEADYYCSAWDDSLNGVVFGGGTKLTVL	364 nM	92	60 nM	37	–	–	–	–
TPP-31304 (antibody, IgG4, V domains shown) VH: EVQLLESGGGLVQPGGSLRLSCAASGFTFSHYDMNWLRQAPGKGLEWVGVISYDASNKFYADFVKGRFTISRDNSKNTLYLQMNSLRAEDTAVYYCARTPGSHFDYWGQGTLVTVSS VL: QSVLTQPPSASGTPGQRVTISCSGSSSNIGNNAVNWYQQLPGTAPKLLIYYDDLLPSGVPDRFSGSKSGTSASLAISGLRSEDEADYYCSAWDDSLNGVVFGGGTKLTVL	104 nM	35	42 nM	21	–	–	–	–
TPP-31299 (antibody, IgG4, V domains shown) VH: EVQLLESGGGLVQPGGSLRLSCAASGFTFSHYDMNWLRQAPGKGLEWVGVISYDGSNKFYADFVKGRFTISRDNSKNTLYLQMNSLRAEDTAVYYCARTPGSHFDYWGQGTLVTVSS VL: QSVLTQPPSASGTPGQRVTISCSGSSSNIGNNAVNWYQQLPGTAPKLLIYYDDLLPSGVPDRFSGSKSGTSASLAISGLRSEDEADYYCSAWDDSLNAVVFGGGTKLTVL	238 nM	114	44 nM	14	–	–	–	–
TPP-31297 (antibody, IgG4, V domains shown) VH: EVQLLESGGGLVQPGGSLRLSCAASGFTFSHYDMNWLRQAPGKGLEWVGVISYDGSNKFYADFVKGRFTISRDNSKNTLYLQMNSLRAEDTAVYYCARTPGSHFDYWGQGTLVTVSS VL: QSVLTQPPSASGTPGQRVTISCSGSSSNIGNNAVNWYQQLPGTAPKLLIYYDDLLPSGVPDRFSGSKSGTSASLAISGLRSEDEADYYCSAWDDSLQGVVFGGGTKLTVL	181 nM	22	37 nM	7.93	–	–	–	–
TPP-31301 (antibody, IgG4, V domains shown) VH: EVQLLESGGGLVQPGGSLRLSCAASGFTFSHYDMNWLRQAPGKGLEWVGVISYEGSNKFYADFVKGRFTISRDNSKNTLYLQMNSLRAEDTAVYYCARTPGSHFDYWGQGTLVTVSS VL: QSVLTQPPSASGTPGQRVTISCSGSSSNIGNNAVNWYQQLPGTAPKLLIYYDDLLPSGVPDRFSGSKSGTSASLAISGLRSEDEADYYCSAWDDSLQGVVFGGGTKLTVL	18.9 nM	9.71	4.43 nM	1.77	–	–	–	–
TPP-31307 (antibody, IgG4, V domains shown) VH: EVQLLESGGGLVQPGGSLRLSCAASGFTFSHYDMNWLRQAPGKGLEWVGVISYDASNKFYADFVKGRFTISRDNSKNTLYLQMNSLRAEDTAVYYCARTPGSHFDYWGQGTLVTVSS VL: QSVLTQPPSASGTPGQRVTISCSGSSSNIGNNAVNWYQQLPGTAPKLLIYYDDLLPSGVPDRFSGSKSGTSASLAISGLRSEDEADYYCSAWDDSLNAVVFGGGTKLTVL	> 500 nM	126	45 nM	37	–	–	–	–
TPP-31303 (antibody, IgG4, V domains shown) VH: EVQLLESGGGLVQPGGSLRLSCAASGFTFSHYDMNWLRQAPGKGLEWVGVISYEGSNKFYADFVKGRFTISRDNSKNTLYLQMNSLRAEDTAVYYCARTPGSHFDYWGQGTLVTVSS VL: QSVLTQPPSASGTPGQRVTISCSGSSSNIGNNAVNWYQQLPGTAPKLLIYYDDLLPSGVPDRFSGSKSGTSASLAISGLRSEDEADYYCSAWDDSLNAVVFGGGTKLTVL	9.08 nM	11	4.38 nM	2.49	–	–	–	–
TPP-31306 (antibody, IgG4, V domains shown) VH: EVQLLESGGGLVQPGGSLRLSCAASGFTFSHYDMNWLRQAPGKGLEWVGVISYDASNKFYADFVKGRFTISRDNSKNTLYLQMNSLRAEDTAVYYCARTPGSHFDYWGQGTLVTVSS VL: QSVLTQPPSASGTPGQRVTISCSGSSSNIGNNAVNWYQQLPGTAPKLLIYYDDLLPSGVPDRFSGSKSGTSASLAISGLRSEDEADYYCSAWDDSLSGVVFGGGTKLTVL	126 nM	23	57 nM	60	–	–	–	–
TPP-18087 (antibody, mouse IgG1, V domains shown) VH: EVQLLESGGGLVQPGGSLRLSCAASGFTFSHYDMNWLRQAPGKGLEWVGVISYDGSNKFYADFVKGRFTISRDNSKNTLYLQMNSLRAEDTAVYYCARTPGSHFDYWGQGTLVTVSS VL: QSVLTQPPSASGTPGQRVTISCSGSSSNIGNNAVNWYQQLPGTAPKLLIYYDDLLPSGVPDRFSGSKSGTSASLAISGLRSEDEADYYCSAWDDSLNGVVFGGGTKLTVLG	111 nM and 93 nM	12	204 nM and 231 nM	21	–	–	–	–
TPP-31305 (antibody, IgG4, V domains shown) VH: EVQLLESGGGLVQPGGSLRLSCAASGFTFSHYDMNWLRQAPGKGLEWVGVISYDASNKFYADFVKGRFTISRDNSKNTLYLQMNSLRAEDTAVYYCARTPGSHFDYWGQGTLVTVSS VL: QSVLTQPPSASGTPGQRVTISCSGSSSNIGNNAVNWYQQLPGTAPKLLIYYDDLLPSGVPDRFSGSKSGTSASLAISGLRSEDEADYYCSAWDDSLQGVVFGGGTKLTVL	182 nM	47	30 nM	29	–	–	–	–
TPP-31302 (antibody, IgG4, V domains shown) VH: EVQLLESGGGLVQPGGSLRLSCAASGFTFSHYDMNWLRQAPGKGLEWVGVISYEGSNKFYADFVKGRFTISRDNSKNTLYLQMNSLRAEDTAVYYCARTPGSHFDYWGQGTLVTVSS VL: QSVLTQPPSASGTPGQRVTISCSGSSSNIGNNAVNWYQQLPGTAPKLLIYYDDLLPSGVPDRFSGSKSGTSASLAISGLRSEDEADYYCSAWDDSLSGVVFGGGTKLTVL	14.5 nM	7.13	3.49 nM	1.17	–	–	–	–
TPP-31298 (antibody, IgG4, V domains shown) VH: EVQLLESGGGLVQPGGSLRLSCAASGFTFSHYDMNWLRQAPGKGLEWVGVISYDGSNKFYADFVKGRFTISRDNSKNTLYLQMNSLRAEDTAVYYCARTPGSHFDYWGQGTLVTVSS VL: QSVLTQPPSASGTPGQRVTISCSGSSSNIGNNAVNWYQQLPGTAPKLLIYYDDLLPSGVPDRFSGSKSGTSASLAISGLRSEDEADYYCSAWDDSLSGVVFGGGTKLTVL	135 nM	33	21 nM	6.22	–	–	–	–
TPP-31300 (antibody, IgG4, V domains shown) VH: EVQLLESGGGLVQPGGSLRLSCAASGFTFSHYDMNWLRQAPGKGLEWVGVISYEGSNKFYADFVKGRFTISRDNSKNTLYLQMNSLRAEDTAVYYCARTPGSHFDYWGQGTLVTVSS VL: QSVLTQPPSASGTPGQRVTISCSGSSSNIGNNAVNWYQQLPGTAPKLLIYYDDLLPSGVPDRFSGSKSGTSASLAISGLRSEDEADYYCSAWDDSLNGVVFGGGTKLTVL	1.09 nM	4.75	3.42 nM	0.81	–	–	–	–
TPP-26290 (antibody, V domains shown) VH: EVQLLESGGGLVQPGGSLRLSCAASGFTFSSYGMHWVRQAPGKGLEWVSVISYDGSYKYYADSVKGRFTISRDNSKNTLYLQMNSLRAEDTAVYYCAAGVPDYWGQGTLVTVSS VL: QSVLTQPPSASGTPGQRVTISCTGSSSNIGAGMDVHWYQQLPGTAPKLLIYSNNERPSGVPDRFSGSKSGTSASLAISGLRSEDEADYYCAAWDDSLNGPVFGGGTKLTVL	–	–	–	–	75.9	4.7	95.1	0.97
TPP-26312 (antibody, V domains shown) VH: EVQLLESGGGLVQPGGSLRLSCAASGFTFSSYGMHWVRQAPGKGLEWVSVISYDGSYKYYADSVKGRFTISRDNSKNTLYLQMNSLRAEDTAVYYCAAGVPDYWGQGTLVTVSS VL: QSVLTQPPSASGTPGQRVTISCTGSSSNIGAGLDVHWYQQLPGTAPKLLIYSNNERPSGVPDRFSGSKSGTSASLAISGLRSEDEADYYCAAWDDSLNGPVFGGGTKLTVL	–	–	–	–	68.6	3.8	87.3	1.2
TPP-26301 (antibody, V domains shown) VH: EVQLLESGGGLVQPGGSLRLSCAASGFTFSSYGMHWVRQAPGKGLEWVSVISYDGSYKYYADSVKGRFTISRDNSKNTLYLQMNSLRAEDTAVYYCAAGVPDYWGQGTLVTVSS VL: QSVLTQPPSASGTPGQRVTISCTGSSSNIGADYDVHWYQQLPGTAPKLLIYSNNERPSGVPDRFSGSKSGTSASLAISGLRSEDEADYYCAAWDDSLNGPVFGGGTKLTVL	–	–	–	–	76.1	2.6	91.8	1.5
